How the values were obtained:
Details in all cases: liposome binding signal on yeast proteome chip, Cy3-streptavidin detection
PI(3,4)P2 liposomes = test: Yeast proteome chip probed with PI(3,4)P2 liposomes
PI(3)P liposomes = test: Yeast proteome chip probed with PI(3)P liposomes
PI(3,4,5)P3 liposomes = test: Yeast proteome chip probed with PI(3,4,5)P3 liposomes
[1] = system: phosphatidylcholine (PC) liposomes; test: Yeast proteome chip probed with PC liposomes
Method in brief: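 Sonicated liposomes in TBS, of phosphatidylcholine with 1% (w/w) biotin-DHPE plus 5% (w/w) of the named phosphoinositide (PC-only liposomes lacking it), were incubated on blocked chips of GST-RGS-His6-tagged yeast ORF proteins for 1 h at RT. Bound liposomes were detected with Cy3- or Cy5-streptavidin after PBS washes.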

PI(4)P liposomes = test: Yeast proteome chip probed with PI(4)P liposomes
PI(4,5)P2 liposomes = test: Yeast proteome chip probed with PI(4,5)P2 liposomes

B1: LYS1: yeast GST-HisX6 fusion protein on proteome chip (protein, UniProt P38998 2-373, looked up)
Saccharopine dehydrogenase …: AAVTLHLRAETKPLEARAALTPTTVKKLIAKGFKIYVEDSPQSTFNINEYRQAGAIIVPAGSWKTAPRDRIIIGLKEMPETDTFPLVHEHIQFAHCYKDQAGWQNVLMRFIKGHGTLYDLEFLENDQGRRVAAFGFYAGFAGAALGVRDWAFKQTHSDDEDLPAVSPYPNEKALVKDVTKDYKEALATGARKPTVLIIGALGRCGSGAIDLLHKVGIPDANILKWDIKETSRGGPFDEIPQADIFINCIYLSKPIAPFTNMEKLNNPNRRLRTVVDVSADTTNPHNPIPIYTVATVFNKPTVLVPTTAGPKLSVISIDHLPSLLPREASEFFSHDLLPSLELLPQRKTAPVWVRAKKLFDRHCARVKRSSRL
modifications: GST-HisX6 tag
notes: yeast GST-HisX6 fusion protein on proteome chip
- PI(3, 4)P2 (PI(3,4)P2 liposomes): 81.94
- PI(3)P (PI(3)P liposomes): 3.50
- PI(3, 4, 5)P3 (PI(3,4,5)P3 liposomes): 61.20
- PC [1]: 255.33
- PI(4)P (PI(4)P liposomes): 198.15
- PI(4, 5)P2 (PI(4,5)P2 liposomes): 22.21

B2: ROT1: yeast GST-HisX6 fusion protein on proteome chip (protein, UniProt Q03691 25-256, looked up)
Protein ROT1: EDESNSIYGTWSSKSNQVFTGPGFYDPVDELLIEPSLPGLSYSFTEDGWYEEATYQVSGNPRNPTCPMASLIYQHGTYNISENGTLVLNPIEVDGRQLFSDPCNDDGVSTYSRYNQTETFKEYAVGIDPYHGIYTLQLYQYDGTPMQPLYLAYRPPMMLPTETLNPTSSATSTDDPSSNKKRSLRSLVRRSLENRHKTNAIKRQNTSFLTSNAIWYISAGMLGVGSLLFLAF
modifications: GST-His6 tag
notes: as for B1
- PI(3, 4)P2 (PI(3,4)P2 liposomes): 137.98
- PI(3)P (PI(3)P liposomes): 33.25
- PI(3, 4, 5)P3 (PI(3,4,5)P3 liposomes): 99.11
- PC [1]: 121.50
- PI(4)P (PI(4)P liposomes): 52.04
- PI(4, 5)P2 (PI(4,5)P2 liposomes): 63.58

B3: KCC4: yeast GST-HisX6 fusion protein on proteome chip (protein, UniProt P25389 1-1037, looked up)
Probable …: MTVANTETHSAAKPSSTIGPWKLGETLGFGSTGKVQLAQHERTGHRTAVKVISKSIFNNNGNHSNDDSVLPYNIEREIVIMKLLSHPNVLSLYDVWETNNNLYLILEYAEKGELFNLLVDHGPLPEREAINCFRQIIIGISYCHALGIVHRDLKPENLLLDSFYNIKIADFGMAALQTDADLLETSCGSPHYAAPEIVSGLPYEGFASDVWSCGVILFALLTGRLPFDEENGNVRDLLLKVQKGQFEMPNDTEISRDAQDLIGKILVVDPRQRIKIRDILSHPLLKKYQTIKDSKSIKDLPRENTYLYPLADSNNHTSASIDDSILQNLVVLWHGRHADDIVSKLKENGTNKEKILYALLYRFKLDSVRGSNKKNRNKIKKTKKNKRSSTLSSSSSLLLNNRSIQSTPRRRTSKRHSREFSSSRKRSSFLLSSNPTDSSPIPLRSSKRITHINVASANTQATPSGVPNPHKRNSKKRSSKRLSYMPNTKRSSLTSKSLSNFTNLIDDDDWEYIEKDAKRTSSNFATLIDEIFEPEKFELAKREKAELQRKVQEAKRQSVNAQKINEDEFGSEVSDGMKELKKINDKVSSPLINYEFSQQELLQDIDTLLTNRYQLSSYTRPISRLDPGLTPVTETLPNNLKEKTALLQDTEKKIIETIRRSKFLGSLLNVRGGLSPGKSELAPIEESPIVSTTPLIYNDRMEPRRISDVEVPHFTRKSKHFTTANNRRSVLSLYAKDSIKDLNEFLIKEDPDLPPQGSTDNESRSEDPEIAESITDSRNIQYDEDDSKDGDNVNNDNILSDFPQGVGISQEYDMKDKNPNQSPISKSAEPTLVVKLPSLSSFQGKNASGLGLYQREPSKVTLPSLTSNNSSVGENIEDGAEKGTESEKIAASLSDDDLKEDNDKKDNDTVNAPTTVKKPPNSVLLKKFSKGKILELEIHAKIPEKRLYEGLHKLLEGWKQYGLKNLVFNITNMIITGKLVNDSILFLRSTLFEIMVLPNGDGRSLIKFNKKTGSTKTLTKLATEIQIILQKEGVLDK
modifications: GST-HisX6 tag
notes: as for B1
- PI(3, 4)P2 (PI(3,4)P2 liposomes): 234.84
- PI(3)P (PI(3)P liposomes): 33.50
- PI(3, 4, 5)P3 (PI(3,4,5)P3 liposomes): 65.47
- PC [1]: 123.26
- PI(4)P (PI(4)P liposomes): 84.92
- PI(4, 5)P2 (PI(4,5)P2 liposomes): 67.06

B4: AKL1: yeast GST-HisX6 fusion protein on proteome chip (protein, UniProt P38080 2-1108, looked up)
Serine/threonine-protein …: SITNGTSRSVSAMGHPAVERYTPGHIVCVGTHKVEVVNYLAEGGFAQIYVVKFLEYLNEFDNTASVPLKIGDVACLKRVLVQDENGLNEMRNEVEVMKKLKGAPNIVQYFDSNASRRRDGVQGFEVLLLMELCPNKSLLDYMNQRLSTKLTEAEIVKIMYDVALSISQMHYLPVSLIHRDIKIENVLVDAKNNFKLADFGSTSTCFPIVTTHQDIALLTQNIYVHTTPQYRSPEMIDLYRCLPINEKSDIWALGVFLYKLLFFTTPFEMTGQFAILHSKYEFPVNKYSSKLINLIIIMLAENPNLRPNIYQVLYHLCEILNVEVPIEDKYAEGAYNFSKYTQFQNKLQNVQLQMYQLQQKKIMQNNKLSDSEENLLNDMFLSSFEISSKLPMNASDGHAAVSRIPSQNVGQELEEEKESQSDQRKSTLSEDKSSRTTSNANSSGTANNPQEINTIQSPGIEDKSIFENKTPGELYYPSVSELDTYLDKELVKQSSDPTISEQSPRLNTQSLPQRQKSTSSYSSGGRSMKSTSYGAATIGSDEALANEKTAGINKMKQHKSNNPFPKMNVAYHSTNELSNDASNFFLEEQQQGQRYQQAQNQTGTQGNTFPDESQYQSRVEQQQQQQDQPKGPANYSQRNFYTGRDRSNKPMQLGGTIAGDSGNRRVNFQNISQNYATNSQSGYLPSQNSPAIPMVRPVISMNQQQAQQIQAQQLQAQQMQAKQQMQAKQQMQVQQQLQVQQQMQIQNANNNGTYVSDRTNHTTEDMRNAQGGEPPILAGNSANEPMHSSSKNEALLIELSPLKEDAGKQSFQDTNEPQTGGIEDAGGSGTIKGSNNNRNGVLNLSLNEMDLSRDDTGAAVSSFSSSSSSASIQQAKLSGRKGSSKRNNYSTDELGDSMVSSESIDIDLDDARRGKTAERRPLHNERGHKDQARSSDASKSNQFKSKDFSSVSTRQPRQSLDLNFQEVNLSSPTLTQEHRNKNDSPAPNSHHSYRVSPHASTAITENKRHSTGHELSTRSNGKHETHRTGSKQRHDLERYRHSKDKDSNSSITISTSTPSEMRKSFARARQSLDLERVRREAMASSASSSGGSNGKRRSFFSVFRSEK
modifications: GST-His6 tag
notes: as for B1
- PI(3, 4)P2 (PI(3,4)P2 liposomes): 132.49
- PI(3)P (PI(3)P liposomes): 19.50
- PI(3, 4, 5)P3 (PI(3,4,5)P3 liposomes): 93.38
- PC [1]: 207.20
- PI(4)P (PI(4)P liposomes): 189.44
- PI(4, 5)P2 (PI(4,5)P2 liposomes): 57.48

B5: OPY1: yeast GST-HisX6 fusion protein on proteome chip (protein, UniProt P38271 1-328, looked up)
Pleckstrin homology domain …: MIAGATAPSSQHEILIASNLIKKPSTSQNKTPTAQSSSGNNGAADGAPQGYHHHHHHHRHLWWPRTTDHQYWCVLRKNQFAYYKTRDEREAISVIPRFDILNFKISELDGILTVYTPSKDLIFKFPRGQNEKVGMELMHNWKIALEKFLSSPSGNESVTTGSDYDEEEDDDDLIVVDEKAGPSSSKHSCSLTMDEQLSREDKEFYRMFDPRNAEHQVCSGILYTKVKKKKLFNRAKWQKFNVELTNTSFNLYSFKTGKLKKSIKLDKIIDCIELDNNSKMKNDDTNFALITFDERLSFKAANDQDMVDWIINFKSGILIRKKLKAENI
modifications: GST-His6 fusion tag
notes: as for B1
- PI(3, 4)P2 (PI(3,4)P2 liposomes): 179.27
- PI(3)P (PI(3)P liposomes): 17.50
- PI(3, 4, 5)P3 (PI(3,4,5)P3 liposomes): 41.17
- PC [1]: 250.04
- PI(4)P (PI(4)P liposomes): 188.13
- PI(4, 5)P2 (PI(4,5)P2 liposomes): 37.89

B6: MET8: yeast GST-HisX6 fusion protein on proteome chip (protein)
chain: MVKSLQLAHQLKDKKILLIGGGEVGLTRLYKLIPTGCKLTLVSPDLHKSIIPKFGKFIQNEDQPDYREDAKRFINPNWDPTKNEIYEYIRSDFKDEYLDLEDENDAWYIIMTCIPDHPESARIYHLCKERFGKQQLVNVADKPDLCDFYFGANLEIGDRLQILISTNGLSPRFGALVRDEIRNLFTQMGDLALEDAVVKLGELRRGIRLLAPDDKDVKYRMDWARRCTDLFGIQHCHNIDVKRLLDLFKVMFQEQNCSLQFPPRERLLSEYCSS
modifications: left off: a dimerising Fc or GST
notes: as for B1
- PI(3, 4)P2 (PI(3,4)P2 liposomes): 95.44
- PI(3)P (PI(3)P liposomes): 117.00
- PI(3, 4, 5)P3 (PI(3,4,5)P3 liposomes): 25.42
- PC [1]: 188.12
- PI(4)P (PI(4)P liposomes): 175.94
- PI(4, 5)P2 (PI(4,5)P2 liposomes): 244.09

B7: APG1: yeast GST-HisX6 fusion protein on proteome chip (protein, UniProt P53104 1-897, looked up)
Serine/threonine-protein …: MGDIKNKDHTTSVNHNLMASAGNYTAEKEIGKGSFATVYRGHLTSDKSQHVAIKEVSRAKLKNKKLLENLEIEIAILKKIKHPHIVGLIDCERTSTDFYLIMEYCALGDLTFLLKRRKELMENHPLLRTVFEKYPPPSENHNGLHRAFVLSYLQQLASALKFLRSKNLVHRDIKPQNLLLSTPLIGYHDSKSFHELGFVGIYNLPILKIADFGFARFLPNTSLAETLCGSPLYMAPEILNYQKYNAKADLWSVGTVVFEMCCGTPPFRASNHLELFKKIKRANDVITFPSYCNIEPELKELICSLLTFDPAQRIGFEEFFANKVVNEDLSSYELEDDLPELESKSKGIVESNMFVSEYLSKQPKSPNSNLAGHQSMADNPAELSDALKNSNILTAPAVKTDHTQAVDKKASNNKYHNSLVSDRSFEREYVVVEKKSVEVNSLADEVAQAGFNPNPIKHPTSTQNQNVLLNEQFSPNNQQYFQNQGENPRLLRATSSSSGGSDGSRRPSLVDRRLSISSLNPSNALSRALGIASTRLFGGANQQQQQQQITSSPPYSQTLLNSQLFHELTENIILRIDHLQHPETLKLDNTNIVSILESLAAKAFVVYSYAEVKFSQIVPLSTTLKGMANFENRRSMDSNAIAEEQDSDDAEEEDETLKKYKEDCLSTKTFGKGRTLSATSQLSATFNKLPRSEMILLCNEAIVLYMKALSILSKSMQVTSNWWYESQEKSCSLRVNVLVQWLREKFNECLEKADFLRLKINDLRFKHASEVAENQTLEEKGSSEEPVYLEKLLYDRALEISKMAAHMELKGENLYNCELAYATSLWMLETSLDDDDFTNAYGDYPFKTNIHLKSNDVEDKEKYHSVLDENDRIIIRKYIDSIANRLKILRQKMNHQN
modifications: GST-His6 tag
notes: as for B1
- PI(3, 4)P2 (PI(3,4)P2 liposomes): 138.45
- PI(3)P (PI(3)P liposomes): 72.00
- PI(3, 4, 5)P3 (PI(3,4,5)P3 liposomes): 92.70
- PC [1]: 464.28
- PI(4)P (PI(4)P liposomes): 668.47
- PI(4, 5)P2 (PI(4,5)P2 liposomes): 319.65

Source: US20050182242A1, “Global analysis of protein activities using proteome chips” (priority 2001, published 2005)
